From US20190315854A1 (BEIJING VDJBIO, published 2019)
Substitutions are numbered along the chain they refer to. Where two headings read alike, the source gives them in different places. Values belong to the binder of their own block, whether it stands above or below them.

Legend:
[1] = biological target: T1, sIL-6R (soluble IL-6 receptor; SBH Sciences) (human, UniProt P08887 20-365); assay: SPR (BIAcore 3000), antibody on chip, sIL-6R analyte, 25 C
T1 construct: also called human IL-6R
T1 sequence: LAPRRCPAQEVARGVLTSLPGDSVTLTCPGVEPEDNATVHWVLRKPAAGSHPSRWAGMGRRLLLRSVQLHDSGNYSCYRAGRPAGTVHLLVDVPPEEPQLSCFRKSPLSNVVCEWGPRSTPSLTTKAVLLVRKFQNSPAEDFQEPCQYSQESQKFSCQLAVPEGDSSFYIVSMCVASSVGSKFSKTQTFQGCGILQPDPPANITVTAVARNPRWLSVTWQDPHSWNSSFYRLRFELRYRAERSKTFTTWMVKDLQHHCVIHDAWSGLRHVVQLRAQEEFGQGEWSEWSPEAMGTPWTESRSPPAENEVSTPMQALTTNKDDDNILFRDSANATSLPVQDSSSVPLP
Experimental: (§1) All SPR measurements were performed on a BIAcore 3000 instrument (GE Biosciences, Piscataway, N.J.). BIAcore Software-BIAcore 3000 Control Software V3.2 was used for the operation and control of the BIAcore 3000 instrument. BiaEvaluation Software V4.1 was used for the analysis of SPR data from the BIAcore 3000 instrument and data was plotted using Graph Pad Prism Software Version 5. […] The indicated antibodies were used as the ligand for the construction of the reference channel of the chip. […] Each sample was injected for 3 min at a flow rate of 30 μL/min to allow for binding to chip-bound antibody. Next, binding buffer without analyte was sent over the chip at the same flow rate to allow for dissociation of bound analyte. After 500s, remaining bound analyte was removed by injecting regeneration solution (1M Formic acid). Data was analyzed by using the Kinetics Wizard and the manual fitting programs that are both included with the BiaEvaluation Software V4.1.

[2] = biological target: T1, sIL-6R (soluble IL-6 receptor; SBH …); assay: as above; remark: listed apart in the source
Experimental: as §1

[3] = biological target: T1, sIL-6R (soluble IL-6 receptor; SBH …); assay: as above; remark: listed apart in the source
Summary of the method: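 Antibody immobilized on chip, sIL-6R injected as analyte for 3 min at 30 μL/min, then buffer-only dissociation for 500 s. Surface regenerated with 1M formic acid between cycles. Kinetics obtained by fitting sensorgrams with Kinetics Wizard and manual fitting.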

[4] = biological target: T1, sIL-6R (soluble IL-6 receptor; SBH …); assay: SPR (BIAcore 3000), antibody on chip, sIL-6R analyte, pH 6.0
Experimental: as §1
(§2) SPR measurements at pH 7.4 and pH 6.0 were performed in parallel and KD values calculated according to the protocol as detailed in Example 1. The pH dependence is calculated as the ratio between the KD value at pH 6.0 and the KD value at pH 7.4, which indicates the fold of affinity decrease from the pH7.4 to pH6.0. If the pH dependence of a subject antibody described herein is over 1, it means that the antibody binds to IL-6R in such a pH-dependent manner that its binding to IL-6R at pH7.4 is higher than at pH6.0. If the pH dependence of a subject antibody described herein is lower than 1, it means that the antibody binds to IL-6R in such a pH-dependent manner that its binding to IL-6R at pH6.0 is higher than at pH7.4.

[5] = biological target: T1, sIL-6R (soluble IL-6 receptor; SBH …); assay: SPR (BIAcore 3000), antibody on chip, sIL-6R analyte, pH 7.4
Experimental: as §1, §2

[6] = biological target: T1, sIL-6R (soluble IL-6 receptor; SBH …); assay: SPR; ratio of KD at pH 6.0 to KD at pH 7.4
Experimental: as §1, §2

[7] = biological target: T2, IL-6 receptor on DS-1 cells (ATCC CRL 11102) (UniProt P08887 20-468, limits assumed); assay: cell-based or functional assay
T2 sequence (looked up): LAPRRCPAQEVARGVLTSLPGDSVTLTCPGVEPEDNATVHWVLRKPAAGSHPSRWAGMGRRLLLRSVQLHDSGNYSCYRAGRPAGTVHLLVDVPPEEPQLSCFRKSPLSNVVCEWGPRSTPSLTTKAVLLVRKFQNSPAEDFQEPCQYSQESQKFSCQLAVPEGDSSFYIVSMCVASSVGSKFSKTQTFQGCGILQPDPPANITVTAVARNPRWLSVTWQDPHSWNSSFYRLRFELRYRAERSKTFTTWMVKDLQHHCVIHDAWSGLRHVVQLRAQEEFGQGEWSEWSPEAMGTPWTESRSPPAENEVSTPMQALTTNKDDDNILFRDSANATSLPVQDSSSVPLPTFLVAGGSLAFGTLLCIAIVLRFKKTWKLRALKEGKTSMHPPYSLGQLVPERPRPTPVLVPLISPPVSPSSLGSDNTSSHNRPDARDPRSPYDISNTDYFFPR

[8] = biological target: T1, sIL-6R (soluble IL-6 receptor; SBH …); assay: SPR (BIAcore 3000), antibody on chip, sIL-6R analyte, pH 7.4; remark: listed apart in the source
Experimental: as §1, §2

[9] = biological target: T1, sIL-6R (soluble IL-6 receptor; SBH …); assay: SPR (BIAcore 3000), antibody on chip, sIL-6R analyte, pH 6.0; remark: listed apart in the source
Experimental: as §1, §2

Kd [1]: 0.243 nM | Relative Affinity [1]: 11.7 fold vs 25 (Tocilizumab) | koff [1]: 5.59e-05 s⁻¹ | kon [1]: 230000 M⁻¹ s⁻¹
B1: 56# (antibody, human IgG1, kappa, V domains shown)
VH: QVQLQESGPGLVRPSQTLSLTCTVSGYSITSDHAWSWVRQPPGRGLEWIGFISYSGMITYNPSLKSRVTMLRDTSKNQFSLRLSSVTAADTAVYYCARSLARITAMDYWGQGSLVTVSS
VL: DIQMTQSPSSLSASVGDRVTITCRASQDISSYLNWYQQKPGKAPKLLIYYTSRLHSGVPSRFSGSGSGTDFTFTISSLQPEDIATYYCQQGNTLPYTFGQGTKVEIKR
notes: also called Sample # 56

Kd [1]: 0.0258 nM | Relative Affinity [1]: 110 fold vs 25 (Tocilizumab) | koff [1]: 6.61e-06 s⁻¹ | kon [1]: 256000 M⁻¹ s⁻¹
B2: 62# (antibody, human IgG1, kappa, V domains shown)
VH: B1 VH with I58T, S99C, I103A
VL: B1 VL
notes: also called Sample # 62

Kd [2]: 0.212 nM | Relative Affinity [2]: 13.2 fold vs 25 (Tocilizumab) | koff [2]: 3.54e-05 s⁻¹ | kon [2]: 167000 M⁻¹ s⁻¹
B3: 247# (antibody, human IgG1, kappa, V domains shown)
VH: B1 VH with F51Y, I58T, S99C, I103M
VL: B1 VL with Q89G, T93R
notes: also called Sample # 247

Kd [2]: 0.354 nM | Relative Affinity [2]: 7.9 fold vs 25 (Tocilizumab) | koff [2]: 9.27e-05 s⁻¹ | kon [2]: 262000 M⁻¹ s⁻¹
B4: 250# (antibody, human IgG1, kappa, V domains shown)
VH: B1 VH with F51Y, I58T
VL: B1 VL
notes: also called Sample # 250

Kd [1]: 0.334 nM | Relative Affinity [1]: 8.5 fold vs 25 (Tocilizumab) | koff [1]: 3.17e-05 s⁻¹ | kon [1]: 95000 M⁻¹ s⁻¹
B5: 203# (antibody, human IgG1, kappa, V domains shown)
VH: B1 VH with F51Y, M57I, I58T, S99C, I103M
VL: B1 VL with Q89G, T93R
notes: also called Sample # 203

Kd [1]: 0.141 nM | Relative Affinity [1]: 20.2 fold vs 25 (Tocilizumab) | koff [1]: 3.38e-05 s⁻¹ | kon [1]: 239000 M⁻¹ s⁻¹
B6: 66# (antibody, human IgG1, kappa, V domains shown)
VH: B1 VH with I58T, I103M
VL: B1 VL
notes: also called Sample # 66

Kd [3]: 0.0605 nM | Relative Affinity [3]: 52.2 fold vs 25 (Tocilizumab) | koff [3]: 1.01e-05 s⁻¹ | kon [3]: 166000 M⁻¹ s⁻¹ | Kd [4]: 0.159 nM | koff [4]: 4.62e-05 s⁻¹ | kon [4]: 292000 M⁻¹ s⁻¹ | Kd [5]: 0.0605 nM | koff [5]: 1.01e-05 s⁻¹ | kon [5]: 166000 M⁻¹ s⁻¹ | pH dependence (Fold of affinity decrease) [6]: 2.63 fold
B7: 237# (antibody, human IgG1, kappa, V domains shown)
VH: B1 VH with F51Y, I58T, S99C, I103T
VL: B1 VL with Q89G, T93R
notes: also called Sample # 237

IC50 (µg/ml), inhibition of DS-1 cell proliferation, MTS assay, IL6 2 ng/mL [7]: 0.0362 µg/mL | Kd [1]: 0.0143 nM | Relative Affinity [1]: 199 fold vs 25 (Tocilizumab) | koff [1]: 3.28e-06 s⁻¹ | kon [1]: 229000 M⁻¹ s⁻¹
B8: 204# (antibody, human IgG1, kappa, V domains shown)
VH: B1 VH with I58T, S99C
VL: B1 VL with Q89G, T93R

Kd [2]: 0.805 nM | Relative Affinity [2]: 3.5 fold vs 25 (Tocilizumab) | koff [2]: 0.00014 s⁻¹ | kon [2]: 173000 M⁻¹ s⁻¹
B9: 251# (antibody, human IgG1, kappa, V domains shown)
VH: B1 VH with F51Y
VL: B1 VL
notes: also called Sample # 251

Kd [3]: 0.00112 nM | Relative Affinity [3]: 2820 fold vs 25 (Tocilizumab) | koff [3]: 1.48e-07 s⁻¹ | kon [3]: 132000 M⁻¹ s⁻¹ | Kd [4]: 0.107 nM | koff [4]: 3.1e-05 s⁻¹ | kon [4]: 291000 M⁻¹ s⁻¹ | Kd [5]: 0.00112 nM | koff [5]: 1.48e-07 s⁻¹ | kon [5]: 132000 M⁻¹ s⁻¹ | pH dependence (Fold of affinity decrease) [6]: 95.5 fold
B10: 231# (antibody, human IgG1, kappa, V domains shown)
VH: B1 VH with F51Y, M57I, I58T, S99T, I103M, M106I, Y108F
VL: B1 VL
notes: also called Sample # 231

Kd [8]: 0.0122 nM | koff [8]: 2.14e-06 s⁻¹ | kon [8]: 175000 M⁻¹ s⁻¹ | Kd [9]: 0.056 nM | koff [9]: 2.15e-05 s⁻¹ | kon [9]: 384000 M⁻¹ s⁻¹ | pH dependence (Fold of affinity decrease) [6]: 4.59 fold | Kd [1]: 0.0122 nM | Relative Affinity [1]: 234 fold vs 25 (Tocilizumab) | koff [1]: 2.14e-06 s⁻¹ | kon [1]: 175000 M⁻¹ s⁻¹
B11: 205# (antibody, human IgG1, kappa, V domains shown)
VH: B1 VH with I58T, S99C, I103T
VL: B1 VL with Q89G, T93R

Kd [1]: 0.133 nM | Relative Affinity [1]: 21.4 fold vs 25 (Tocilizumab) | koff [1]: 2.85e-05 s⁻¹ | kon [1]: 214000 M⁻¹ s⁻¹
B12: 64# (antibody, human IgG1, kappa, V domains shown)
VH: B1 VH with I58T, S99C, I103M
VL: B1 VL
notes: also called Sample # 64

Kd [2]: 0.241 nM | Relative Affinity [2]: 11.6 fold vs 25 (Tocilizumab) | koff [2]: 3.39e-05 s⁻¹ | kon [2]: 141000 M⁻¹ s⁻¹
B13: 249# (antibody, human IgG1, kappa, V domains shown)
VH: B1 VH with F51Y, I58T, S99C, I103A
VL: B1 VL with Q89G, T93R

Kd [2]: 0.189 nM | Relative Affinity [2]: 14.8 fold vs 25 (Tocilizumab) | koff [2]: 1.73e-05 s⁻¹ | kon [2]: 91200 M⁻¹ s⁻¹
B14: 248# (antibody, human IgG1, kappa, V domains shown)
VH: B1 VH with F51Y, S99T, I103M, M106I, Y108F
VL: B1 VL with Q89G, T93R
notes: also called Sample # 248

Kd [1]: 0.205 nM | Relative Affinity [1]: 13.9 fold vs 25 (Tocilizumab) | koff [1]: 4.59e-05 s⁻¹ | kon [1]: 224000 M⁻¹ s⁻¹
B15: 60# (antibody, human IgG1, kappa, V domains shown)
VH: B1 VH with I58T
VL: B1 VL
notes: also called Sample # 60

Kd [3]: 0.000669 nM | Relative Affinity [3]: 4720 fold vs 25 (Tocilizumab) | koff [3]: 1.37e-07 s⁻¹ | kon [3]: 204000 M⁻¹ s⁻¹ | Kd [4]: 0.0438 nM | koff [4]: 2.99e-05 s⁻¹ | kon [4]: 683000 M⁻¹ s⁻¹ | Kd [5]: 0.000669 nM | koff [5]: 1.37e-07 s⁻¹ | kon [5]: 204000 M⁻¹ s⁻¹ | pH dependence (Fold of affinity decrease) [6]: 65.5 fold
B16: 209# (antibody, human IgG1, kappa, V domains shown)
VH: B1 VH with I58T, M106I, Y108F
VL: B1 VL
notes: also called Sample # 209

Kd [1]: 0.126 nM | Relative Affinity [1]: 22.6 fold vs 25 (Tocilizumab) | koff [1]: 2.79e-05 s⁻¹ | kon [1]: 221000 M⁻¹ s⁻¹
B17: 208# (antibody, human IgG1, kappa, V domains shown)
VH: B1 VH with I58T, I103A
VL: B1 VL
notes: also called Sample # 208

Kd [1]: 0.0296 nM | Relative Affinity [1]: 96.3 fold vs 25 (Tocilizumab) | koff [1]: 8.6e-06 s⁻¹ | kon [1]: 291000 M⁻¹ s⁻¹
B18: 68# (antibody, human IgG1, kappa, V domains shown)
VH: B1 VH with I58T, S99C, M106I, W109F
VL: B1 VL
notes: also called Sample # 68

Kd [1]: 0.0674 nM | Relative Affinity [1]: 42.3 fold vs 25 (Tocilizumab) | koff [1]: 1.47e-05 s⁻¹ | kon [1]: 218000 M⁻¹ s⁻¹
B19: 201# (antibody, human IgG1, kappa, V domains shown)
VH: B1 VH with I58T, S99C, M106I, Y108F
VL: B1 VL
notes: also called Sample # 201
